From article doi:10.1101/359695

Experiments:
[1] = molecular target: reconstituted 26S proteasome with Cy3-labeled base (Rpt1-I191AzF-Cy3) (S. cerevisiae) (UniProt P33299); test: FRET or BRET
[2] = molecular target: reconstituted 26S proteasome (S. cerevisiae), all wild-type components (S. cerevisiae) (UniProt P33299)

Substance	FRET amplitude of tail insertion, percent of that of the 35-residue tail [1] [%]	other results
ubiquitinated titin-I27^V15P-35 modified with Cy5 on its unstructured tail (from UniProt P0CG63 1-76)	–	time constant of tail insertion (FRET change) [1]: 1.6 s
ubiquitinated titin-I27^V15P-1 (1 AA tail), acceptor-labeled (from UniProt P0CG63 1-76)	16	–
ubiquitinated 5-FAM-titin-I27^V15P-35 (from UniProt P0CG63 1-76)	–	KM of multiple-turnover degradation (Michaelis-Menten, anisotropy of 5-FAM) [2]: 0.22 µM
ubiquitinated titin-I27^V15P-11 (11 AA tail), acceptor-labeled (from UniProt P0CG63 1-76)	25	–
